Assay results: paper PMC11417369, “DNA sequence and chromatin differentiate sequence-specific transcription factor binding in the human malaria parasite Plasmodium falciparum”
Positions count from the first letter of the chain named.

B1: GTGCAC_site9937 (dsDNA)
DNA 1: TTTCACATATATATGGTGCATATTTTATGTGTAAAT
DNA 2: ATTTACACATAAAATATGCACCATATATATGTGAAA
B2: GTGCAC_site10569 (dsDNA)
DNA 1: TACTATTATAAATATGTGCACTTCAATAATATACTA
DNA 2: TAGTATATTATTGAAGTGCACATATTTATAATAGTA
B3: GTGCAC_site10377 (dsDNA)
DNA 1: GAATAAATATTAAATGTGCACTTGAATAGATGTAAA
DNA 2: TTTACATCTATTCAAGTGCACATTTAATATTTATTC
B4: GTGCAC_site10141 (dsDNA)
DNA 1: ACCCATTTTAATTTAGTGCACATTTTACCTTTATAC
DNA 2: GTATAAAGGTAAAATGTGCACTAAATTAAAATGGGT
B5: GTGCAC_site10713 (dsDNA)
DNA 1: TTTTTTTTTCAAGAGGTGCGTGTATTTTAACAAAAA
DNA 2: TTTTTGTTAAAATACACGCACCTCTTGAAAAAAAAA
B6: GTGCAC_site9511 (dsDNA)
DNA 1: TTTATATTTATGTAGGTGCATTTGTTTACAACATAT
DNA 2: ATATGTTGTAAACAAATGCACCTACATAAATATAAA
B7: GTGCAC_site10388 (dsDNA)
DNA 1: ATTATATTTATGTTGGTGCATTATACATGAAATTTA
DNA 2: TAAATTTCATGTATAATGCACCAACATAAATATAAT
B8: GTGCAC_site10559 (dsDNA)
DNA 1: TAAATATTTTTATGGGTGCGTTCTTTAGCGCAATTT
DNA 2: AAATTGCGCTAAAGAACGCACCCATAAAAATATTTA
B9: GTGCAC_site10274 (dsDNA)
DNA 1: CAACCTTTTTTGTTGGTGCATAATTTTTTTTTCTTT
DNA 2: AAAGAAAAAAAAATTATGCACCAACAAAAAAGGTTG
B10: GTGCAC_site10187 (dsDNA)
DNA 1: TTAAAAAATAACAAGGTGCAAATAGGTTTATAAAAT
DNA 2: ATTTTATAAACCTATTTGCACCTTGTTATTTTTTAA
B11: GTGCAC_site10688 (dsDNA)
DNA 1: AGTGACACCAAAGGGGTGCAATGAAATTAAAAATAT
DNA 2: ATATTTTTAATTTCATTGCACCCCTTTGGTGTCACT
B12: GTGCAC_site10397 (dsDNA)
DNA 1: ATATATAATAAACAGGTGCATTGTTTTATTTTGTAT
DNA 2: ATACAAAATAAAACAATGCACCTGTTTATTATATAT
B13: GTGCAC_site10447 (dsDNA)
DNA 1: TAATGAGCGCTTGTAGTGCATTATATTCAAAAATAT
DNA 2: ATATTTTTGAATATAATGCACTACAAGCGCTCATTA
B14: GTGCAC_site9883 (dsDNA)
DNA 1: ATTAAATGCAGTTCGGTGCATTAAGGTTATGATGAA
DNA 2: TTCATCATAACCTTAATGCACCGAACTGCATTTAAT
B15: GTGCAC_site10132 (dsDNA)
DNA 1: AGTGTGTGTAATAAAGTGCATTAAAAATGACACGTA
DNA 2: TACGTGTCATTTTTAATGCACTTTATTACACACACT
B16: GTGCAC_site10146 (dsDNA)
DNA 1: GAGGTACATTAATTAGTGCATTAAAATTTTTATCCT
DNA 2: AGGATAAAAATTTTAATGCACTAATTAATGTACCTC
B17: GTGCAC_site10298 (dsDNA)
DNA 1: ATTTATTTCTTGTTAGTGCACTTTCTTTGGTAAAAT
DNA 2: ATTTTACCAAAGAAAGTGCACTAACAAGAAATAAAT
B18: GTGCAC_site9437 (dsDNA)
DNA 1: CATTTTCATTTTAAGGTGCATTAATATTTATTTTAA
DNA 2: TTAAAATAAATATTAATGCACCTTAAAATGAAAATG
B19: GTGCAC_site9836 (dsDNA)
DNA 1: ATTATATACATTTTAGTGCATTACATAATAATATAA
DNA 2: TTATATTATTATGTAATGCACTAAAATGTATATAAT
B20: GTGCAC_site10763 (dsDNA)
DNA 1: AGGATAAAAGTTATGGTGCATTAACCTATTTAAATA
DNA 2: TATTTAAATAGGTTAATGCACCATAACTTTTATCCT
B21: GTGCAC_site9914 (dsDNA)
DNA 1: TGGCTTTCCCTGCCGGTGCATTAACATTTTTTACAT
DNA 2: ATGTAAAAAATGTTAATGCACCGGCAGGGAAAGCCA
B22: GTGCAC_site10254 (dsDNA)
DNA 1: GTATATAAATAAATAGTGCATTATTAAAAATAATGT
DNA 2: ACATTATTTTTAATAATGCACTATTTATTTATATAC
B23: GTGCAC_site10279 (dsDNA)
DNA 1: GCCAATAAAGATGTGGTGCATTATATATATATATAT
DNA 2: ATATATATATATATAATGCACCACATCTTTATTGGC
B24: GTGCAC_site10150 (dsDNA)
DNA 1: TTTCCCTCAAATAAAGTGCATTATGATTTTAATTTA
DNA 2: TAAATTAAAATCATAATGCACTTTATTTGAGGGAAA
B25: GTGCAC_site9879 (dsDNA)
DNA 1: TTTTTATTTTTAGTAGTGCATTAATCATATGGTCAT
DNA 2: ATGACCATATGATTAATGCACTACTAAAAATAAAAA
B26: GTGCAC_site9418 (dsDNA)
DNA 1: ATGATATATTTAATAGTGCACTAATTAAAATTATTA
DNA 2: TAATAATTTTAATTAGTGCACTATTAAATATATCAT
B27: GTGCAC_site10332 (dsDNA)
DNA 1: ATTACATTAATAAGAGTGCATTATATAAGTTTTATG
DNA 2: CATAAAACTTATATAATGCACTCTTATTAATGTAAT
B28: GTGCAC_site9557 (dsDNA)
DNA 1: TTTTTATGGACTATGGTGCATTATATATAAATGAAA
DNA 2: TTTCATTTATATATAATGCACCATAGTCCATAAAAA
B29: GTGCAC_site9463 (dsDNA)
DNA 1: ATTAAAAAATCCATAGTGCACTACGATAGGTTCCGA
DNA 2: TCGGAACCTATCGTAGTGCACTATGGATTTTTTAAT
B30: GTGCAC_site9795 (dsDNA)
DNA 1: B7 DNA 1 with T3C, A25G, A30G, A32T
DNA 2: B7 DNA 2 with T5A, T7C, T12C, A34G
B31: GTGCAC_site9571 (dsDNA)
DNA 1: B7 DNA 1 with T3C, G12A, A25G
DNA 2: B7 DNA 2 with T12C, C25T, A34G
B32: GTGCAC_site10014 (dsDNA)
DNA 1: TTTACCTCTTCAATGGTGCAATAACTCAAAAATTTG
DNA 2: CAAATTTTTGAGTTATTGCACCATTGAAGAGGTAAA
B33: GTGCAC_site9419 (dsDNA)
DNA 1: ATATAAAGTATGTTAGTGCACTTTTTTTTTTTTTTT
DNA 2: AAAAAAAAAAAAAAAGTGCACTAACATACTTTATAT
B34: GTGCAC_site10285 (dsDNA)
DNA 1: CATAAATAAGCTTTAGTGCATTATATTTAAATTTTT
DNA 2: AAAAATTTAAATATAATGCACTAAAGCTTATTTATG
B35: GTGCAC_site9729 (dsDNA)
DNA 1: GAACAAATTAAATAGGTGCATTAACATGTTCTATTT
DNA 2: AAATAGAACATGTTAATGCACCTATTTAATTTGTTC
B36: GTGCAC_site10007 (dsDNA)
DNA 1: TTTCTTTTTTCTTCAGTGCATTAAAATTAACAAAAG
DNA 2: CTTTTGTTAATTTTAATGCACTGAAGAAAAAAGAAA
B37: GTGCAC_site10158 (dsDNA)
DNA 1: AGGTTTTCTTAAATAGTGCATTATAACAAAAATAAA
DNA 2: TTTATTTTTGTTATAATGCACTATTTAAGAAAACCT
B38: GTGCAC_site9835 (dsDNA)
DNA 1: ATTTAAAAGTTGGTAGTGCATTAAAAATAACAAAAA
DNA 2: TTTTTGTTATTTTTAATGCACTACCAACTTTTAAAT
B39: GTGCAC_site9711 (dsDNA)
DNA 1: TTAAATTATTAGAGAGTGCATTATATATATTATACA
DNA 2: TGTATAATATATATAATGCACTCTCTAATAATTTAA
B40: GTGCAC_site10253 (dsDNA)
DNA 1: TTTTTTTTTTTGATGGTGCAATATATTAAATAGAAA
DNA 2: TTTCTATTTAATATATTGCACCATCAAAAAAAAAAA
B41: GTGCAC_site10275 (dsDNA)
DNA 1: AATATTCATATGCAGGTGCATTAATTTTTATTAATT
DNA 2: AATTAATAAAAATTAATGCACCTGCATATGAATATT
B42: GTGCAC_site9493 (dsDNA)
DNA 1: TAAAATTATTAATGAGTGCATTATAAAATCTATATA
DNA 2: TATATAGATTTTATAATGCACTCATTAATAATTTTA
B43: GTGCAC_site10002 (dsDNA)
DNA 1: TATAAGGCAATAATAGTGCACTAAGATATATAATGA
DNA 2: TCATTATATATCTTAGTGCACTATTATTGCCTTATA

These binders were tested against T1, SIP2 D1 (Plasmodium falciparum, UniProt C6KSN9 177-235) (assay: gcPBM; about 25 ug protein; PBS, 1% milk, 0.2 mg/ml BSA, salmon testes DNA, 0.03% Triton X-100). Conditions: tags: N-terminal GST (pGEX-4T-1), kept; label: surface-attached array probe.
T1 sequence: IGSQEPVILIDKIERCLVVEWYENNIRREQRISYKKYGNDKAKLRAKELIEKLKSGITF

| Binder | binding signal |
| --- | --- |
| B1 | 10.5 ln median PBM intensity, better of two orientations |
| B2 | 10.4 ln median PBM intensity, better of two orientations |
| B3 | 10.3 ln median PBM intensity, better of two orientations |
| B4 | 10.5 ln median PBM intensity, better of two orientations |
| B5 | 10.3 ln median PBM intensity, better of two orientations |
| B6 | 10.3 ln median PBM intensity, better of two orientations |
| B7 | 10.2 ln median PBM intensity, better of two orientations |
| B8 | 10.4 ln median PBM intensity, better of two orientations |
| B9 | 10.2 ln median PBM intensity, better of two orientations |
| B10 | 10.3 ln median PBM intensity, better of two orientations |
| B11 | 10.6 ln median PBM intensity, better of two orientations |
| B12 | 10.5 ln median PBM intensity, better of two orientations |

What follows are binders tested against AP2-I D3 (Plasmodium falciparum, UniProt Q8IJW6 910-1027) in the same assay as above. Conditions: tags: N-terminal GST (pGEX-4T-1), kept; label: surface-attached array probe.

| Binder | binding signal |
| --- | --- |
| B13 | 12 ln median PBM intensity, better of two orientations |
| B14 | 12.1 ln median PBM intensity, better of two orientations |
| B15 | 12 ln median PBM intensity, better of two orientations |
| B16 | 12.2 ln median PBM intensity, better of two orientations |
| B17 | 12.1 ln median PBM intensity, better of two orientations |
| B18 | 12.1 ln median PBM intensity, better of two orientations |
| B19 | 12.1 ln median PBM intensity, better of two orientations |
| B20 | 12.1 ln median PBM intensity, better of two orientations |
| B21 | 12.3 ln median PBM intensity, better of two orientations |
| B22 | 12.2 ln median PBM intensity, better of two orientations |
| B23 | 12.1 ln median PBM intensity, better of two orientations |
| B24 | 12 ln median PBM intensity, better of two orientations |
| B25 | 12.1 ln median PBM intensity, better of two orientations |
| B26 | 12.4 ln median PBM intensity, better of two orientations |
| B27 | 12.1 ln median PBM intensity, better of two orientations |
| B28 | 12.3 ln median PBM intensity, better of two orientations |

| Binder | binding signal |
| --- | --- |
| B29 | 12.1 ln median PBM intensity, better of two orientations |
| B30 | 12.2 ln median PBM intensity, better of two orientations |
| B31 | 12.1 ln median PBM intensity, better of two orientations |
| B32 | 12.3 ln median PBM intensity, better of two orientations |
| B33 | 12.1 ln median PBM intensity, better of two orientations |
| B34 | 12.2 ln median PBM intensity, better of two orientations |
| B35 | 12.2 ln median PBM intensity, better of two orientations |
| B36 | 12 ln median PBM intensity, better of two orientations |
| B37 | 12.1 ln median PBM intensity, better of two orientations |
| B38 | 12.2 ln median PBM intensity, better of two orientations |
| B39 | 12.1 ln median PBM intensity, better of two orientations |
| B40 | 12.2 ln median PBM intensity, better of two orientations |
| B41 | 12.2 ln median PBM intensity, better of two orientations |
| B42 | 12.1 ln median PBM intensity, better of two orientations |
| B43 | 12.3 ln median PBM intensity, better of two orientations |
